Where no end group is shown, it is not given here. [ ]: non-standard residue; d: D form. The star is where a group is joined. Val(3-OH) = CC(C)(O)[C@H](N)C(=O)O; Tle = CC(C)(C)[C@H](N)C(=O)O; Ac6c = NC1(C(=O)O)CCCCC1; NHCH2tBu = CC(C)(C)CN*; Aib = CC(C)(N)C(=O)O; NHiPr = CC(C)N*; Sar = CNCC(=O)O
Legend:
Experiment in all cases: cell-based or functional assay
[1] = target: T1, human angiotensin 2 type 1 receptor (human, UniProt P30556 1-359)
T1 sequence (looked up): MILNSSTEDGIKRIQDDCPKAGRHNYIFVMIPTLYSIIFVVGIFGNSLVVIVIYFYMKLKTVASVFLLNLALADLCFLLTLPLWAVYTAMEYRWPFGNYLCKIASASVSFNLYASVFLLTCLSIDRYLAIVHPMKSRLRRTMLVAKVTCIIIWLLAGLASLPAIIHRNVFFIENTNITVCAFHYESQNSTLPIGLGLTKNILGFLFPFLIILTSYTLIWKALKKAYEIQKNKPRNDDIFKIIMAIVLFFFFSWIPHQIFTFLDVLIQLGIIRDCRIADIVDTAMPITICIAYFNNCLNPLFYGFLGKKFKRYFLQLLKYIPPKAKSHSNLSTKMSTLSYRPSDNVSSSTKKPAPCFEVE

[2] = target: T2, rat angiotensin 2 type 1 receptor (rat, UniProt P25095 1-359)
T2 sequence (looked up): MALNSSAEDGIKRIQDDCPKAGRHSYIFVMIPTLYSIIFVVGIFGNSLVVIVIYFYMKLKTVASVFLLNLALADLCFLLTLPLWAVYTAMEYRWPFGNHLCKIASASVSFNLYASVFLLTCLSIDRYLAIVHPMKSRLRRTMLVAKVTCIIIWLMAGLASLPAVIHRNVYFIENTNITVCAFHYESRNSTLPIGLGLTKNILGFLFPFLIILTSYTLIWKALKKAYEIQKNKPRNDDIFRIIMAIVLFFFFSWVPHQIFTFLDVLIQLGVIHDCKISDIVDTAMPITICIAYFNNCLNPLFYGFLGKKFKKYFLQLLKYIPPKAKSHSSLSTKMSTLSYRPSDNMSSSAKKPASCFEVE

[3] = target: T1, human angiotensin 2 type 1 receptor; remark: listed apart in the source
[4] = target: T2, rat angiotensin 2 type 1 receptor; remark: listed apart in the source

Binder: [Sar]RVY[Ac6c]HPK [SEQ ID NO: 50 (Sar-Arg-Val-Tyr-cyHex-His-Pro-Lys)]
- beta-arrestin2 assay EC50 [1]: > 3.2 nM
- beta-arrestin2 assay Span [1]: < 101
- beta-arrestin2 assay pEC50 [1]: < 8.5
- beta-arrestin2 assay EC50 [2]: > 3.2 nM
- beta-arrestin2 assay Span [2]: < 105
- beta-arrestin2 assay pEC50 [2]: < 8.5

Binder: [Sar]RVY[Ac6c]HP-NHiPr [SEQ ID NO: 46 (Sar-Arg-Val-Tyr-cyHex-His-Pro-NH-i-Pr)]
- IP1 G-protein assay EC50 [3]: > 1.3 nM
- IP1 G-protein assay Span [3]: < 103
- IP1 G-protein assay pEC50 [3]: < 9.2
- beta-arrestin2 assay EC50 [1]: > 3.2 nM
- beta-arrestin2 assay Span [1]: < 101
- beta-arrestin2 assay pEC50 [1]: < 8.5
- beta-arrestin2 assay EC50 [2]: > 3.2 nM
- beta-arrestin2 assay Span [2]: < 105
- beta-arrestin2 assay pEC50 [2]: < 8.5

Binder: [Sar]RVY[Ac6c]HP [SEQ ID NO: 41 (Sar-Arg-Val-Tyr-cyHex-His-Pro)]
- beta-arrestin2 assay EC50 [1]: > 3.2 nM
- beta-arrestin2 assay Span [1]: < 101
- beta-arrestin2 assay pEC50 [1]: < 8.5
- beta-arrestin2 assay EC50 [2]: > 3.2 nM
- beta-arrestin2 assay Span [2]: < 105
- beta-arrestin2 assay pEC50 [2]: < 8.5

Binder: [Sar]RVY[Ac6c]HPC [SEQ ID NO: 34 (Sar-Arg-Val-Tyr-cyHex-His-Pro-Cys)]
- beta-arrestin2 assay EC50 [1]: > 3.2 nM
- beta-arrestin2 assay Span [1]: < 101
- beta-arrestin2 assay pEC50 [1]: < 8.5
- beta-arrestin2 assay EC50 [2]: > 3.2 nM
- beta-arrestin2 assay Span [2]: < 105
- beta-arrestin2 assay pEC50 [2]: < 8.5

Binder: [Sar]RVY[Aib]HPV [SEQ ID NO: 33 (Sar-Arg-Val-Tyr-AA01-His-Pro-Val)]
- IP1 G-protein assay EC50 [3]: > 1.3 nM
- IP1 G-protein assay Span [3]: < 103
- IP1 G-protein assay pEC50 [3]: < 9.2
- beta-arrestin2 assay EC50 [1]: > 3.2 nM
- beta-arrestin2 assay Span [1]: < 101
- beta-arrestin2 assay pEC50 [1]: < 8.5
- beta-arrestin2 assay EC50 [2]: > 3.2 nM
- beta-arrestin2 assay Span [2]: < 105
- beta-arrestin2 assay pEC50 [2]: < 8.5

Binder: [Sar]RVY[Ac6c]HPN [SEQ ID NO: 36 (Sar-Arg-Val-Tyr-cyHex-His-Pro-Asn)]
- beta-arrestin2 assay EC50 [1]: > 3.2 nM
- beta-arrestin2 assay Span [1]: < 101
- beta-arrestin2 assay pEC50 [1]: < 8.5
- beta-arrestin2 assay EC50 [2]: > 3.2 nM
- beta-arrestin2 assay Span [2]: < 105
- beta-arrestin2 assay pEC50 [2]: < 8.5

Binder: [Sar]RVY[Tle]HPT [SEQ ID NO: 30 (Sar-Arg-Val-Tyr-AA02-His-Pro-Thr)]
- beta-arrestin2 assay EC50 [1]: > 3.2 nM
- beta-arrestin2 assay Span [1]: < 101
- beta-arrestin2 assay pEC50 [1]: < 8.5
- beta-arrestin2 assay EC50 [2]: > 3.2 nM
- beta-arrestin2 assay Span [2]: < 105
- beta-arrestin2 assay pEC50 [2]: < 8.5

Binder: [Sar]RVY[Ac6c]HPG [SEQ ID NO: 32 (Sar-Arg-Val-Tyr-cyHex-His-Pro-Gly)]
- beta-arrestin2 assay EC50 [1]: > 3.2 nM
- beta-arrestin2 assay Span [1]: < 101
- beta-arrestin2 assay pEC50 [1]: < 8.5
- beta-arrestin2 assay EC50 [2]: > 3.2 nM
- beta-arrestin2 assay Span [2]: < 105
- beta-arrestin2 assay pEC50 [2]: < 8.5

Binder: [Sar]RVY[Ac6c]HP-NHMe [SEQ ID NO: 49 (Sar-Arg-Val-Tyr-cyHex-His-Pro-NH-methyl)]
- beta-arrestin2 assay EC50 [1]: > 3.2 nM
- beta-arrestin2 assay Span [1]: < 101
- beta-arrestin2 assay pEC50 [1]: < 8.5
- beta-arrestin2 assay EC50 [2]: > 3.2 nM
- beta-arrestin2 assay Span [2]: < 105
- beta-arrestin2 assay pEC50 [2]: < 8.5

Binder: [Sar]RVY[Ac6c]HPE [SEQ ID NO: 43 (Sar-Arg-Val-Tyr-cyHex-His-Pro-Glu)]
- beta-arrestin2 assay EC50 [1]: > 3.2 nM
- beta-arrestin2 assay Span [1]: < 101
- beta-arrestin2 assay pEC50 [1]: < 8.5
- beta-arrestin2 assay EC50 [2]: > 3.2 nM
- beta-arrestin2 assay Span [2]: < 105
- beta-arrestin2 assay pEC50 [2]: < 8.5

Binder: [Sar]RVY[Tle]HPV [SEQ ID NO: 29 (Sar-Arg-Val-Tyr-AA02-His-Pro-Val)]
- beta-arrestin2 assay EC50 [1]: > 3.2 nM
- beta-arrestin2 assay Span [1]: < 101
- beta-arrestin2 assay pEC50 [1]: < 8.5
- beta-arrestin2 assay EC50 [2]: > 3.2 nM
- beta-arrestin2 assay Span [2]: < 105
- beta-arrestin2 assay pEC50 [2]: < 8.5

Binder: [Sar]RVY[Ac6c]HPR [SEQ ID NO: 42 (Sar-Arg-Val-Tyr-cyHex-His-Pro-Arg)]
- IP1 G-protein assay EC50 [3]: > 1.3 nM
- IP1 G-protein assay Span [3]: < 103
- IP1 G-protein assay pEC50 [3]: < 9.2
- beta-arrestin2 assay EC50 [1]: > 3.2 nM
- beta-arrestin2 assay Span [1]: < 101
- beta-arrestin2 assay pEC50 [1]: < 8.5
- beta-arrestin2 assay EC50 [2]: > 3.2 nM
- beta-arrestin2 assay Span [2]: < 105
- beta-arrestin2 assay pEC50 [2]: < 8.5

Binder: [Sar]RVY[Ac6c]HP-NHEt [SEQ ID NO: 48 (Sar-Arg-Val-Tyr-cyHex-His-Pro-NH-ethyl)]
- beta-arrestin2 assay EC50 [1]: > 3.2 nM
- beta-arrestin2 assay Span [1]: < 101
- beta-arrestin2 assay pEC50 [1]: < 8.5
- beta-arrestin2 assay EC50 [2]: > 3.2 nM
- beta-arrestin2 assay Span [2]: < 105
- beta-arrestin2 assay pEC50 [2]: < 8.5

Binder: [Sar]RVY[Ac6c]HP[Aib] [SEQ ID NO: 35 (Sar-Arg-Val-Tyr-cyHex-His-Pro-AA01)]
- beta-arrestin2 assay EC50 [1]: > 3.2 nM
- beta-arrestin2 assay Span [1]: < 101
- beta-arrestin2 assay pEC50 [1]: < 8.5
- beta-arrestin2 assay EC50 [2]: > 3.2 nM
- beta-arrestin2 assay Span [2]: < 105
- beta-arrestin2 assay pEC50 [2]: < 8.5

Binder: [Sar]RVY[Ac6c]HPH [SEQ ID NO: 37 (Sar-Arg-Val-Tyr-cyHex-His-Pro-His)]
- IP1 G-protein assay EC50 [4]: > 0.6 nM
- IP1 G-protein assay Span [4]: < 104
- IP1 G-protein assay pEC50 [4]: < 9.2
- beta-arrestin2 assay EC50 [1]: > 3.2 nM
- beta-arrestin2 assay Span [1]: < 101
- beta-arrestin2 assay pEC50 [1]: < 8.5
- beta-arrestin2 assay EC50 [2]: > 3.2 nM
- beta-arrestin2 assay Span [2]: < 105
- beta-arrestin2 assay pEC50 [2]: < 8.5

B1: SEQ ID NO: 52 (Sar-Arg-Val-D-Cys-Ile-His-Cys-D-Ala) (peptide)
peptide: [Sar]RV[dC]IHC[dA]
modifications: not fully specified; printed as Sar-Arg-Val-D-Cys-Ile-His-Cys-D-Ala; cysteine pairing not given here
- beta-arrestin2 assay EC50 [1]: > 3.2 nM
- beta-arrestin2 assay Span [1]: < 101
- beta-arrestin2 assay pEC50 [1]: < 8.5
- beta-arrestin2 assay EC50 [2]: > 3.2 nM
- beta-arrestin2 assay Span [2]: < 105
- beta-arrestin2 assay pEC50 [2]: < 8.5

Binder: [Sar]RVY[Ac6c]HP[Val(3-OH)] [SEQ ID NO: 31 (Sar-Arg-Val-Tyr-cyHex-His-Pro-AA03)]
- beta-arrestin2 assay EC50 [1]: > 3.2 nM
- beta-arrestin2 assay Span [1]: < 101
- beta-arrestin2 assay pEC50 [1]: < 8.5
- beta-arrestin2 assay EC50 [2]: > 3.2 nM
- beta-arrestin2 assay Span [2]: < 105
- beta-arrestin2 assay pEC50 [2]: < 8.5

Binder: [Sar]RVY[Ac6c]HP-NHCH2tBu [SEQ ID NO: 47 (Sar-Arg-Val-Tyr-cyHex-His-Pro-NH-neopentyl)]
- beta-arrestin2 assay EC50 [1]: > 3.2 nM
- beta-arrestin2 assay Span [1]: < 101
- beta-arrestin2 assay pEC50 [1]: < 8.5

Binder: [Sar]KVY[Ac6c]HPA [SEQ ID NO: 51 (Sar-Lys-Val-Tyr-cyHex-His-Pro-Ala)]
- IP1 G-protein assay EC50 [3]: > 1.3 nM
- IP1 G-protein assay Span [3]: < 103
- IP1 G-protein assay pEC50 [3]: < 9.2
- beta-arrestin2 assay EC50 [1]: > 3.2 nM
- beta-arrestin2 assay Span [1]: < 101
- beta-arrestin2 assay pEC50 [1]: < 8.5
- beta-arrestin2 assay EC50 [2]: > 3.2 nM
- beta-arrestin2 assay Span [2]: < 105
- beta-arrestin2 assay pEC50 [2]: < 8.5

Binder: [Sar]RVYXHPT (not fully specified (residue 5); printed as Sar-Arg-Val-Tyr-AA01-His-Pro-Thr) [SEQ ID NO: 40 (Sar-Arg-Val-Tyr-AA01-His-Pro-Thr)]
- beta-arrestin2 assay EC50 [1]: > 3.2 nM
- beta-arrestin2 assay Span [1]: < 101
- beta-arrestin2 assay pEC50 [1]: < 8.5
- beta-arrestin2 assay EC50 [2]: > 3.2 nM
- beta-arrestin2 assay Span [2]: < 105
- beta-arrestin2 assay pEC50 [2]: < 8.5
